Laboratory results: US20220073618A1

Columns and labels:
[1] = biological target: human PD-L1 on cell surface (human) (UniProt Q9NZQ7); experiment: flow cytometry on CHO cells expressing human PD-L1, fitted curve, negative control
[2] = biological target: monkey PD-L1 on cell surface (monkey); experiment: flow cytometry on CHO cells expressing monkey PD-L1, fitted curve, negative control
[3] = biological target: biotin-labeled PD-L1-Fc (human) (UniProt Q9NZQ7); experiment: ELISA: biotin-PD-L1-Fc binding to coated human PD-1 with titrated antibody; negative control
[4] = biological target: biotin-labeled PD-L1-Fc (human) (UniProt Q9NZQ7); experiment: ELISA: biotin-PD-L1-Fc binding to coated human PD-1 with titrated antibody, OD 450 nm, fitted curve; negative control
[5] = biological target: biotin-labeled PD-L1-Fc (human) (UniProt Q9NZQ7); experiment: flow cytometry: biotin-PD-L1-Fc binding to CHO cells expressing human PD-1 with titrated antibody, fitted curve; negative control

Chain of human PD-L1 on cell surface (human) (Q9NZQ7 19-290): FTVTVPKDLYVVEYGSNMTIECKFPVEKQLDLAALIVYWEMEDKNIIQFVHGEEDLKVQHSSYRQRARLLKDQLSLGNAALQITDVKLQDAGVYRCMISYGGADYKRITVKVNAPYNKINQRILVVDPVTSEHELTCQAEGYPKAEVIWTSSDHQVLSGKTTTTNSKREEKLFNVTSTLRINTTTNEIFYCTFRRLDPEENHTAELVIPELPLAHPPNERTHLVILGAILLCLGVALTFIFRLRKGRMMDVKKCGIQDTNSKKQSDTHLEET
Chain of biotin-labeled PD-L1-Fc (human) (Q9NZQ7 19-238 limits assumed): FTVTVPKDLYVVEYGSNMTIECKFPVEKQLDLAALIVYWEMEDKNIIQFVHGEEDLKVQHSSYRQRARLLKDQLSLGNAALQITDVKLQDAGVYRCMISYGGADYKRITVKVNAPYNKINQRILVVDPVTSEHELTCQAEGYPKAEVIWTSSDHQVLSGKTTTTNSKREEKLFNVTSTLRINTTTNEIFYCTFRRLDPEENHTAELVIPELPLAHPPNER

Which results are given for negative control antibody human IgG?
Bottom [1]: 166; EC50 [1]: 0.015 nM; LogEC50 [1]: -1.82; Span [1]: 24.7; Top [1]: 191; Bottom [2]: 216; EC50 [2]: 19.3 nM; LogEC50 [2]: 1.29; Span [2]: 32; Top [2]: 248; EC50 [3]: 2.88 µg/mL; Bottom [4]: 1.75; LogEC50 [4]: 3.46; Span [4]: 0.186; Top [4]: 1.94; Bottom [5]: 5880; LogEC50 [5]: -17.5; Span [5]: 1.15e+06; Top [5]: 1.16e+06
